B1: Pistol ribozyme (parent)
chain: GGGUCGUUGUUCCAUAAUCGCGUGGAUAUGGCACGCAAGUUUCUACCGGGCACCGUAAAUGUCCGACUGGAGCCGUUCGGGCGGCUAUAAACAGACCUCAGGCCCGAAGCGUGGCGGCACCUGCCGCCGGUGGUAAAAAAGAUCGGAAGAGCACACGUCU

Variants of: B1
Assay: aptazyme ON/OFF ratio, guanine; higher = stronger switching; co-transcriptional cleavage with and without guanine

Compared with GGGUCGUUCCAUGAUAAUCGCGUGGAUAUGGCACGCAAGUUUCUACCGGGCACCGUAAAUGUCCGACUGGAGCCGUUCGGGCGGCUAUAAACAGACCUCAGGCCCGAAGCGUGGCGGCACCUGCCGCCGGUGGUAAAAAAGAUCGGAAGAGCACACGUCU [G9C U10C U11A C12U C13G], GGGUCGUUCAGUUAUAAUCGCGUGGAUAUGGCACGCAAGUUUCUACCGGGCACCGUAAAUGUCCGACUGGAGCCGUUCGGGCGGCUAUAAACAGACCUCAGGCCCGAAGCGUGGCGGCACCUGCCGCCGGUGGUAAAAAAGAUCGGAAGAGCACACGUCU [G9C U10A U11G C12U C13U] is higher in “aptazyme ON/OFF ratio” value: 1.1 for the first, 1.26 for the second.

First: GGGUCGUUCCUUGAUAAUCGCGUGGAUAUGGCACGCAAGUUUCUACCGGGCACCGUAAAUGUCCGACUGGAGCCGUUCGGGCGGCUAUAAACAGACCUCAGGCCCGAAGCGUGGCGGCACCUGCCGCCGGUGGUAAAAAAGAUCGGAAGAGCACACGUCU [G9C U10C C12U C13G]
Second: GGGUCGUUCCUUAAUAAUCGCGUGGAUAUGGCACGCAAGUUUCUACCGGGCACCGUAAAUGUCCGACUGGAGCCGUUCGGGCGGCUAUAAACAGACCUCAGGCCCGAAGCGUGGCGGCACCUGCCGCCGGUGGUAAAAAAGAUCGGAAGAGCACACGUCU [G9C U10C C12U C13A]
The “aptazyme ON/OFF ratio” value of the first is lower: 1.06 for the first, 1.07 for the second.

GGGUCGUUCCUUUAUAAUCGCGUGGAUAUGGCACGCAAGUUUCUACCGGGCACCGUAAAUGUCCGACUGGAGCCGUUCGGGCGGCUAUAAACAGACCUCAGGCCCGAAGCGUGGCGGCACCUGCCGCCGGUGGUAAAAAAGAUCGGAAGAGCACACGUCU [G9C U10C C12U C13U] and GGGUCGUUCCACGAUAAUCGCGUGGAUAUGGCACGCAAGUUUCUACCGGGCACCGUAAAUGUCCGACUGGAGCCGUUCGGGCGGCUAUAAACAGACCUCAGGCCCGAAGCGUGGCGGCACCUGCCGCCGGUGGUAAAAAAGAUCGGAAGAGCACACGUCU [G9C U10C U11A C13G] are the same in “aptazyme ON/OFF ratio” value: 1.07 for the first, 1.07 for the second.

Going from GGGUCGUUCCACUAUAAUCGCGUGGAUAUGGCACGCAAGUUUCUACCGGGCACCGUAAAUGUCCGACUGGAGCCGUUCGGGCGGCUAUAAACAGACCUCAGGCCCGAAGCGUGGCGGCACCUGCCGCCGGUGGUAAAAAAGAUCGGAAGAGCACACGUCU [G9C U10C U11A C13U] to GGGUCGUUCCACAAUAAUCGCGUGGAUAUGGCACGCAAGUUUCUACCGGGCACCGUAAAUGUCCGACUGGAGCCGUUCGGGCGGCUAUAAACAGACCUCAGGCCCGAAGCGUGGCGGCACCUGCCGCCGGUGGUAAAAAAGAUCGGAAGAGCACACGUCU [G9C U10C U11A C13A], the “aptazyme ON/OFF ratio” value falls from 1.07 to 1.05.

Going from GGGUCGUUCCUGUAUAAUCGCGUGGAUAUGGCACGCAAGUUUCUACCGGGCACCGUAAAUGUCCGACUGGAGCCGUUCGGGCGGCUAUAAACAGACCUCAGGCCCGAAGCGUGGCGGCACCUGCCGCCGGUGGUAAAAAAGAUCGGAAGAGCACACGUCU [G9C U10C C12G C13U] to GGGUCGUUCCUGAAUAAUCGCGUGGAUAUGGCACGCAAGUUUCUACCGGGCACCGUAAAUGUCCGACUGGAGCCGUUCGGGCGGCUAUAAACAGACCUCAGGCCCGAAGCGUGGCGGCACCUGCCGCCGGUGGUAAAAAAGAUCGGAAGAGCACACGUCU [G9C U10C C12G C13A], the “aptazyme ON/OFF ratio” value falls from 1.09 to 1.06.

First: GGGUCGUUCCUGGAUAAUCGCGUGGAUAUGGCACGCAAGUUUCUACCGGGCACCGUAAAUGUCCGACUGGAGCCGUUCGGGCGGCUAUAAACAGACCUCAGGCCCGAAGCGUGGCGGCACCUGCCGCCGGUGGUAAAAAAGAUCGGAAGAGCACACGUCU [G9C U10C C12G C13G]
Second: GGGUCGUUCCAACAUAAUCGCGUGGAUAUGGCACGCAAGUUUCUACCGGGCACCGUAAAUGUCCGACUGGAGCCGUUCGGGCGGCUAUAAACAGACCUCAGGCCCGAAGCGUGGCGGCACCUGCCGCCGGUGGUAAAAAAGAUCGGAAGAGCACACGUCU [G9C U10C U11A C12A]
The “aptazyme ON/OFF ratio” value of the first is higher: 1.09 for the first, 1.07 for the second.

First: GGGUCGUUCCAUCAUAAUCGCGUGGAUAUGGCACGCAAGUUUCUACCGGGCACCGUAAAUGUCCGACUGGAGCCGUUCGGGCGGCUAUAAACAGACCUCAGGCCCGAAGCGUGGCGGCACCUGCCGCCGGUGGUAAAAAAGAUCGGAAGAGCACACGUCU [G9C U10C U11A C12U]
Second: GGGUCGUUCCAGCAUAAUCGCGUGGAUAUGGCACGCAAGUUUCUACCGGGCACCGUAAAUGUCCGACUGGAGCCGUUCGGGCGGCUAUAAACAGACCUCAGGCCCGAAGCGUGGCGGCACCUGCCGCCGGUGGUAAAAAAGAUCGGAAGAGCACACGUCU [G9C U10C U11A C12G]
The “aptazyme ON/OFF ratio” value of the first is lower: 1.13 for the first, 1.14 for the second.

Compared with GGGUCGUUCCAGGAUAAUCGCGUGGAUAUGGCACGCAAGUUUCUACCGGGCACCGUAAAUGUCCGACUGGAGCCGUUCGGGCGGCUAUAAACAGACCUCAGGCCCGAAGCGUGGCGGCACCUGCCGCCGGUGGUAAAAAAGAUCGGAAGAGCACACGUCU [G9C U10C U11A C12G C13G], GGGUCGUUCCAGUAUAAUCGCGUGGAUAUGGCACGCAAGUUUCUACCGGGCACCGUAAAUGUCCGACUGGAGCCGUUCGGGCGGCUAUAAACAGACCUCAGGCCCGAAGCGUGGCGGCACCUGCCGCCGGUGGUAAAAAAGAUCGGAAGAGCACACGUCU [G9C U10C U11A C12G C13U] is higher in “aptazyme ON/OFF ratio” value: 1.19 for the first, 1.22 for the second.

Compared with GGGUCGUUCCAGAAUAAUCGCGUGGAUAUGGCACGCAAGUUUCUACCGGGCACCGUAAAUGUCCGACUGGAGCCGUUCGGGCGGCUAUAAACAGACCUCAGGCCCGAAGCGUGGCGGCACCUGCCGCCGGUGGUAAAAAAGAUCGGAAGAGCACACGUCU [G9C U10C U11A C12G C13A], GGGUCGUUCCACCAUAAUCGCGUGGAUAUGGCACGCAAGUUUCUACCGGGCACCGUAAAUGUCCGACUGGAGCCGUUCGGGCGGCUAUAAACAGACCUCAGGCCCGAAGCGUGGCGGCACCUGCCGCCGGUGGUAAAAAAGAUCGGAAGAGCACACGUCU [G9C U10C U11A] is lower in “aptazyme ON/OFF ratio” value: 1.19 for the first, 1.12 for the second.
